Measurements as given in patent publication US20220154156A1, “PROTEINS AND METHODS FOR DISRUPTING BACTERIAL COMMUNICATION” (REGENTS OF THE UNIVERSITY OF MINNESOTA, priority 2019, published 2022).

What was measured:
[1] = tested on: bacterial communities at the surface of the steel; assay: 16S rDNA analysis of microbial community on steel coupons; settings: treated coupons
Method: After photo imaging, on each of the coupon surface, all material including biofilm and tubercles were scraped into a sterile 50 ml polypropylene centrifuge tube (Corning, N.Y., USA) using a steel scraper. A 0.5 g subsample of the surface material from each coupon sample was used for DNA extraction using PowerSoil DNA kit (MoBio Laboratories). The extracted DNA was used to sequence the V4 region of 16S rDNA gene and describe changes in the composition of bacterial communities. DNA samples were quantified with a NanoDrop 2000 Spectrophotometer (Thermo Scientific, Waltham, Mass. USA) and then sent overnight to the University of Minnesota Genomics Center for 16S rDNA sequencing. 30 samples were multiplexed into a single run of Illumina MiSeq paired-end 300 cycles, which was expected to generate a total of 15 million sequences of the 254 bp portions of the 16S rDNA V4 region.
Sequence data were processed and analyzed using the MOTHUR program. To ensure high quality data for analysis, sequence reads containing ambiguous bases, homopolymers >7 bp, more than one mismatch in the primer sequence, or an average per base quality score below 25 were removed. Sequences that only appear once in the total set were assumed to be a result of sequencing error and removed from the analysis. Chimeric sequences were also removed using the UCHIME algorithm within the MOTHUR program. […]

[2] = tested on: P. syringae pv. Phaseolicola; assay: Kidney bean plant infection; format: in vivo; settings: sprayed, 14 days, multiple inoculations
Method: Plants were inoculated twice (day 1 and day 6) with 5×10^6 cells P. syringae pv. Phaseolicola. Left, leaves were sprayed with enzyme buffer after the fist inoculation, for right, leaves were sprayed with buffer containing the QQ lactonase (0.5 mg/mL). Pictures were taken at day 14.
Kidney bean plants were grown and infected with P. syringae pv. Phaseolicola.

[3] = 25° C., purified protein sample; cited from earlier work
[4] = tested on: complex soil microbial community; assay: Biofilm quantification in flow-through recirculating bioreactor; format: cell-based; settings: over 21 days
Method: After overnight induction (18° C., 0.2% L-Arabinose, 200 RPM shaking), cells overexpressing proteins were centrifuged (4,400×g, 20 min, 4° C.) and re-suspended in 100 mM potassium phosphate buffer, pH 7, at a concentration of 0.4 g/mL wet weight (0.2 g/mL for the 1× lactonase beads). Gel beads (1 mm diameter) containing the lactonase/control bacteria cultures were made using a dripping method while gelation occurred, using a method similar to a previously used protocol^41 400 mg PEG (average molecular weight, 10,000 Da) was mixed with 4 mL acetic acid (0.01M) until the PEG dissolved. […]
The flow-through system used in this study consisted of three 3-liter tanks set up in parallel. […] Each tank contained three liters of 15× diluted LB media in water and a pre-broken 96-stripwell plate was submerged to the bottom (so that individual wells could be harvested for either biofilm quantification or DNA extraction). […]
Inside each of the tanks sat two submerged 96-stripwell plates. […] Individual wells were extracted in triplicate for crystal violet biofilm quantification (OD550 nm) using a similar protocol as previously described^13. […] To quantify biofilm, the remaining crystal violet stained to the wells was solubilized with 125 μL of 30% acetic acid and this solution was read on a spectrophotometer at 550 nm. […]

soil bacterial community = assay: Different lactonases on soil microbial community (Example 8); format: cell-based; settings: 7 days, vs inactive SsoPox 5A8
Method: Principal component analysis (PCA) based on deep bacterial 16S rDNA sequences (Illumina V4 region).
The same experiments as described above were performed on the same soil microbial community but with two different lactonases, GcL, and Ssopox W263I. These enzymes differ primarily by their substrate specificity. […] This is important because different bacteria use different AHLs to communicate. Indeed, The structure of AHLs vary a lot with respect to the length of N-acyl chains (from C4 to C18), the hydroxyl or oxo group of the acyl chain and the saturated or unsaturated state of the carbon chain^1. The hydrophobicity of AHLs relates to their passive diffusion through membranes. […] In fact, regulatory circuits may be interconnected, like in P. aeruginosa^6, and allow for compensatory responses: if the LasI/LasR system is inactivated, the RhlI/RhlR system can still control LasI/LasR-spectific functions^7.

B1: SsoPox W263I: improved variant of the hyperthermostable lactonase SsoPox from Sulfolobus solfataricus, exhibiting higher catalytic rates (protein, UniProt Q97VT7 1-314, looked up, variant W263I)
Aryldialkylphosphatase: MRIPLVGKDSIESKDIGFTLIHEHLRVFSEAVRQQWPHLYNEDEEFRNAVNEVKRAMQFGVKTIVDPTVMGLGRDIRFMEKVVKATGINLVAGTGIYIYIDLPFYFLNRSIDEIADLFIHDIKEGIQGTLNKAGFVKIAADEPGITKDVEKVIRAAAIANKETKVPIITHSNAHNNTGLEQQRILTEEGVDPGKILIGHLGDTDNIDYIKKIADKGSFIGLDRYGLDLFLPVDKRNETTLRLIKDGYSDKIMISHDYCCTIDIGTAKPEYKPKLAPRWSITLIFEDTIPFLKRNGVNEEVIATIFKENPKKFFS
abundance of Burkholderiales, Pseudomonadales and Rhodospirillales [1]: significantly reduced
protection of kidney bean plant [2]: protected the plant from infection
time remaining stable [3]: > 300 days
reduction of biofilm formation [4]: 2 fold
planktonic microbial community composition (soil bacterial community): induce differential planktonic microbial community biases
